According to PMC3312455 (2009):

T1: VEGFR2/KDR ECD (Homo sapiens, UniProt P35968)
T1 chain: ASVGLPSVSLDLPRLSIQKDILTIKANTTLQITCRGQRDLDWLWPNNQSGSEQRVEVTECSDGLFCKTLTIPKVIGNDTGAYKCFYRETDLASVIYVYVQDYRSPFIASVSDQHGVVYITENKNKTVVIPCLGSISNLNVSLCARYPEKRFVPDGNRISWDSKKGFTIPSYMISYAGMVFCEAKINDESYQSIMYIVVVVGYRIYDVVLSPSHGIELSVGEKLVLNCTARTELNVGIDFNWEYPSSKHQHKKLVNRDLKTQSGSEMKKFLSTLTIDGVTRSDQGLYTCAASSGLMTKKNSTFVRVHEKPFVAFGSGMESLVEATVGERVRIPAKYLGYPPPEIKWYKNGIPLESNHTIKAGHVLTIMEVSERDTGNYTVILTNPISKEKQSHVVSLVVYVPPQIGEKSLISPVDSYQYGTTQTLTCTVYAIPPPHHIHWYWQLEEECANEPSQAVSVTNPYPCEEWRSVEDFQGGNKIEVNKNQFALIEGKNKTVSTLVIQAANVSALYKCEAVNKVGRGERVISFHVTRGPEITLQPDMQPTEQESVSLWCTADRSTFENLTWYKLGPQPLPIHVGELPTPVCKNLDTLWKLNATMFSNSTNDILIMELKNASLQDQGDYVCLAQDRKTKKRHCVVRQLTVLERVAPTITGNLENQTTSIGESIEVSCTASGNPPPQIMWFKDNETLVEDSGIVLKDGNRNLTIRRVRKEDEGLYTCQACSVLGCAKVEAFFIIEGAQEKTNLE

B1: HIV-Tat (protein)
chain: MEPVDPRLEPWKHPGSQPKTACTNCYCKKCCFHCQVCFITKALGISYGRKKRRQRRRAPQGSQTHQVSLSKQPTSQSRGDPTGPKE
B2: VEGF-A165 (protein)
chain: MTDRQTDTAPSPSYHLLPGRRRTVDAAASRGQGPEPAPGGGVEGVGARGVALKLFVQLLGCSRFGGAVVRAGEAEPSGAARSASSGREEPQPEEGEEEEEKEEERGPQWRLGARKPGSWTGEAAVCADSAPAARAPQALARASGRGGRVARRGAEESGPPHSPSRRGSASRAGPGRASETMNFLLSWVHWSLALLLYLHHAKWSQAAPMAEGGGQNHHEVVKFMDVYQRSYCHPIETLVDIFQEYPDEIEYIFKPSCVPLMRCGGCCNDEGLECVPTEESNITMQIMRIKPHQGQHIGEMSFLQHNKCECRPKKDRARQEKKSVRGKGKGQKRKRKKSRYKSWSVPCGPCSERRKHLFVQDPQTCKCSCKNTDSRCKARQLELNERTCRCDKPRR

Molecular target: T1, VEGFR2/KDR ECD
Test: SPR

Binder | Kd [nM]
B1 | 0.07
B2 | 0.041
